Test results reported in article PMC3720256.

Legend:
Assay in all cases: EMSA
[1] = biological target: T1, Ryp2;Ryp3 (Histoplasma capsulatum …, UniProt B2CQK0;B2CQK1 1-404;1-373, |); conditions: protein: ivt;ivt; tags: C-terminal TEV site-6xHis;C-terminal TEV site-6xHis; copies: 1;1; label: 5'-IRDye800 (Fwd strand); blunt
T1 sequence 1: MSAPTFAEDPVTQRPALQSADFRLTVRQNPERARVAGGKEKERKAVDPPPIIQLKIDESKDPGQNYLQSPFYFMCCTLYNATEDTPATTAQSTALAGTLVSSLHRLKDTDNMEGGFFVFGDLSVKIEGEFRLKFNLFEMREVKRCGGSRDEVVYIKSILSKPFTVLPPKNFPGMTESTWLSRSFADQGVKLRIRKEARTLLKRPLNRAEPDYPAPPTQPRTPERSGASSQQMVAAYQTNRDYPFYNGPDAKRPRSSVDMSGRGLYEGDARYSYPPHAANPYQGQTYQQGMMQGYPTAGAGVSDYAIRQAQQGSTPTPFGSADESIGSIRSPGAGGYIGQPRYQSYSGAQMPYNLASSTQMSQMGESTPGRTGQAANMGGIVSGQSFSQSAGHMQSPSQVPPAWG
T1 sequence 2: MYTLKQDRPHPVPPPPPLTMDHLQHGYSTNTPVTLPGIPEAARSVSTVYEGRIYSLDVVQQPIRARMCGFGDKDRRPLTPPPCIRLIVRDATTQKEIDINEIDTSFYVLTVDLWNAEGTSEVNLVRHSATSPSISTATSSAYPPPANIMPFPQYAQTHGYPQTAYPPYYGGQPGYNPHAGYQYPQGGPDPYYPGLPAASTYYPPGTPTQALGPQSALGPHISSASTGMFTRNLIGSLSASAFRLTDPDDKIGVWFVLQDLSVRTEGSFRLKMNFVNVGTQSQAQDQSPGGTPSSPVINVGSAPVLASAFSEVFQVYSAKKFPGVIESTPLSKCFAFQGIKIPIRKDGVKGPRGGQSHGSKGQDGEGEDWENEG

[2] = biological target: Ryp1(N) (Histoplasma capsulatum G217B, UniProt A9QXX8 1-267); conditions: protein: ivt; tags: C-terminal TEV site-6xHis; label: 5'-IRDye800 (Fwd strand); blunt
[3] = biological target: Ryp1 (Histoplasma capsulatum G217B, UniProt A9QXX8 1-487); conditions: protein: ivt; tags: C-terminal TEV site-6xHis; label: 5'-IRDye800 (Fwd strand); blunt

B1: CBP1 promoter Motif B probe (dsDNA)
DNA 1: ATCAGGCGTCCGATCAGGTGATTGCTTTTAACCTTGGGATCCAGAGATCTCTCTATCTTT
DNA 2: AAAGATAGAGAGATCTCTGGATCCCAAGGTTAAAAGCAATCACCTGATCGGACGCCTGAT
binding result [1]: binds

B2: CBP1 promoter Motif A probe (dsDNA)
DNA 1: TAATGGTTCCAGATTGAGTTTCGTTTAAAGTTCACAACTCAATTCGGCAGCTCCGCTGCA
DNA 2: TGCAGCGGAGCTGCCGAATTGAGTTGTGAACTTTAAACGAAACTCAATCTGGAACCATTA
binding result [2]: binds
binding result [3]: binds
